The results in this text go back to patent US20250179161A1.

The target of this test is Amyloid Beta (Aβ) 1-42 (human). In words: cell-based or functional assay.
Sequence of Amyloid Beta (Aβ) 1-42 (human) (peptide, as listed by the source): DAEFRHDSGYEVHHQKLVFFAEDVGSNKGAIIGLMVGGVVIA

human IgG isotype control antibody gave an Avg. pg/mL Aβ1-42 left after ex vivo phagocytosis, APP/PS1 mouse brain sections with primary murine microglia, mean of 92600 pg/mL; an Aβ1-42 (pg/ml) left after ex vivo phagocytosis, human AD brain sections with primary murine microglia of 185000 pg/mL; a Mean (Aβ spots per neuron), isotype control at 1:50 mAb:Aβ42, soluble Aβ 1 µM, rat hippocampal neurons (Aβ spots per neuron) of 58.7.
